Substitutions are numbered along the chain they refer to. Values belong to the binder of their own block, whether it stands above or below them.
Legend:
[1] = molecular target: T1, human TREM2 (human) (UniProt Q9NZC2); assay: 2nd screen, 2 nM Ab
T1 sequence (looked up): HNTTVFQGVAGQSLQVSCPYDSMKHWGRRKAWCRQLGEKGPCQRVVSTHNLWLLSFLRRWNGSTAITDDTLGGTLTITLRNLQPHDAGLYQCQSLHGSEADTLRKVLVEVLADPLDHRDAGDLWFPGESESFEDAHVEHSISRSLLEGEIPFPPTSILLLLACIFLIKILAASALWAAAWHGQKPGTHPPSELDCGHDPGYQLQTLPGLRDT

[2] = molecular target: T1, human TREM2 (human); assay: 1st screen, 10 nM Ab
[3] = molecular target: T1, human TREM2 (human); assay: 2nd screen, 10 nM Ab

Binding Signal (fold over 6E7 parental antibody) [1]: 1.45 fold
Binding Signal (fold over 6E7 parental antibody) [2]: 1.44 fold
Binding Signal (fold over 6E7 parental antibody) [3]: 1.62 fold
B1: 6E7 variant V84 (antibody, V domains shown)
VH: EVQLVQSGAEVKKPGESLKISCKGSGYGFTSYWIAWVRQMPGKGLEWMGIIYPGDSDTRYSPSFQGQVTISADKSISTAYLQWSSLKASDTAMYFCARQRTFYYDSSDYSDYWGQGTLVTVSS
VL: DIQMTQSPSSVSASVGDRVTITCRASQGISSWLAWYQQKPGKAPKLLIYGASSLQNGVPSRFSGSGSGTDFTLTISSLQPEDFATYFCQQADSFPRTFGQGTKLEIK

Binding Signal (fold over 6E7 parental antibody) [1]: 0.66 fold
Binding Signal (fold over 6E7 parental antibody) [2]: 1.25 fold
Binding Signal (fold over 6E7 parental antibody) [3]: 1.17 fold
B2: 6E7 variant V53 (antibody, V domains shown)
VH: B1 VH with G28S, S63H, S110F
VL: B1 VL with G50A

Binding Signal (fold over 6E7 parental antibody) [1]: 5.02 fold
Binding Signal (fold over 6E7 parental antibody) [2]: 6.51 fold
Binding Signal (fold over 6E7 parental antibody) [3]: 6.58 fold
B3: 6E7 variant V49 (antibody, V domains shown)
VH: B1 VH with G28S, T30N, I50T, Y60L, Q99S, S110F
VL: B1 VL with G50A, L54R, F94Y

Binding Signal (fold over 6E7 parental antibody) [1]: 3.74 fold
Binding Signal (fold over 6E7 parental antibody) [2]: 4.64 fold
Binding Signal (fold over 6E7 parental antibody) [3]: 4.52 fold
B4: 6E7 variant V75 (antibody, V domains shown)
VH: B1 VH with G28S, Q99G, S110F
VL: B1 VL with G50A, N56A, F94Y

Binding Signal (fold over 6E7 parental antibody) [1]: 2.23 fold
Binding Signal (fold over 6E7 parental antibody) [2]: 2.55 fold
Binding Signal (fold over 6E7 parental antibody) [3]: 2.9 fold
B5: 6E7 variant V2 (antibody, V domains shown)
VH: B1 VH with Y27S, G28S, S56G, Q99S, S110F
VL: B1 VL with G50A, L54R, S93R

Binding Signal (fold over 6E7 parental antibody) [1]: 5.88 fold
Binding Signal (fold over 6E7 parental antibody) [2]: 6 fold
Binding Signal (fold over 6E7 parental antibody) [3]: 5.51 fold
B6: 6E7 variant V4 (antibody, V domains shown)
VH: B1 VH with G28S, T30G, Y60V, Q99S, S110F
VL: B1 VL with G50A, S53R, F94Y

Binding Signal (fold over 6E7 parental antibody) [1]: 0.94 fold
Binding Signal (fold over 6E7 parental antibody) [2]: 1.33 fold
Binding Signal (fold over 6E7 parental antibody) [3]: 1.46 fold
B7: 6E7 variant V89 (antibody, V domains shown)
VH: B1 VH with G28S, S110F
VL: B1 VL with G50A, F94H

Binding Signal (fold over 6E7 parental antibody) [1]: 1.15 fold
Binding Signal (fold over 6E7 parental antibody) [2]: 1.31 fold
Binding Signal (fold over 6E7 parental antibody) [3]: 1.35 fold
B8: 6E7 variant V13 (antibody, V domains shown)
VH: B1 VH with G28S, T30G, P62A, Q99G, S110F
VL: B1 VL with G50A, N56G, F94M

Binding Signal (fold over 6E7 parental antibody) [1]: 5.41 fold
Binding Signal (fold over 6E7 parental antibody) [2]: 5.41 fold
Binding Signal (fold over 6E7 parental antibody) [3]: 5.37 fold
B9: 6E7 variant V85 (antibody, V domains shown)
VH: B1 VH with G28S, T30R, I50T, Q99S, S110F
VL: B1 VL with G50A, L54R

Binding Signal (fold over 6E7 parental antibody) [1]: 1.29 fold
Binding Signal (fold over 6E7 parental antibody) [2]: 1.68 fold
Binding Signal (fold over 6E7 parental antibody) [3]: 1.92 fold
B10: 6E7 variant V1 (antibody, V domains shown)
VH: B1 VH with G28S, Y32S, Q99S, S110F
VL: B1 VL with G50A, Q55T, F94Y

Binding Signal (fold over 6E7 parental antibody) [1]: 3.35 fold
Binding Signal (fold over 6E7 parental antibody) [2]: 3.26 fold
Binding Signal (fold over 6E7 parental antibody) [3]: 3.63 fold
B11: 6E7 variant V60 (antibody, V domains shown)
VH: B1 VH with G28H, T58V
VL: B1 VL with G50A, N56R, Q89G

Binding Signal (fold over 6E7 parental antibody) [1]: 3.39 fold
Binding Signal (fold over 6E7 parental antibody) [2]: 4.1 fold
Binding Signal (fold over 6E7 parental antibody) [3]: 4.16 fold
B12: 6E7 variant V50 (antibody, V domains shown)
VH: B1 VH with G28S, T30G, I50V, S110L
VL: B1 VL with G50A, L54R, F94L

Binding Signal (fold over 6E7 parental antibody) [1]: 2.3 fold
Binding Signal (fold over 6E7 parental antibody) [2]: 2.42 fold
Binding Signal (fold over 6E7 parental antibody) [3]: 2.54 fold
B13: 6E7 variant V48 (antibody, V domains shown)
VH: B1 VH with G28S, T30G, T58V, Q99M, S110F
VL: B1 VL with G50A, N56T, F94L

Binding Signal (fold over 6E7 parental antibody) [1]: 1.87 fold
Binding Signal (fold over 6E7 parental antibody) [2]: 2.49 fold
Binding Signal (fold over 6E7 parental antibody) [3]: 2.89 fold
B14: 6E7 variant V62 (antibody, V domains shown)
VH: B1 VH with G28S, T30G, S61A, D108G, S110F
VL: B1 VL with G50A, N56R, Q89G

Binding Signal (fold over 6E7 parental antibody) [1]: 1.95 fold
Binding Signal (fold over 6E7 parental antibody) [2]: 1.97 fold
Binding Signal (fold over 6E7 parental antibody) [3]: 2.24 fold
B15: 6E7 variant V3 (antibody, V domains shown)
VH: B1 VH with G28S, T30A, G66D, Q99G, S110F
VL: B1 VL with G50A, L54R, S93R

Binding Signal (fold over 6E7 parental antibody) [1]: 1.29 fold
Binding Signal (fold over 6E7 parental antibody) [2]: 2.05 fold
Binding Signal (fold over 6E7 parental antibody) [3]: 2.75 fold
B16: 6E7 variant V65 (antibody, V domains shown)
VH: B1 VH with G28S, Q99S, S110F
VL: B1 VL with G50A

— US20260250381A1
